# Measurements reported in PMC12292641.
# Target: PpbHLH1 (Phalaenopsis pulcherrima)
substance,measurement,value
PpMYB1 (natural protein),"dual-luciferase assay in tobacco leaves: PpANS promoter activity with PpMYB1 and PpbHLH1 co-expressed, against PpMYB1 alone",4.7 fold
